Data published in the supplement of paper PMC7877785.
± gives the uncertainty stated by the source.

Assay: self-splicing fitness, log relative to wild type (ln ratio); higher = more splicing; Tetrahymena group I intron in knt gene, E. coli kanamycin selection, DiMSum; sequences stand for … in CUCUCU…GGAGGGAAAAGUUAUCAGGCAUGCACCUGGUAGCUAGUCUUUAAACCAAUAGAUUGCAUCGGUUUAAAAGGCAAGACCGUCAAAUUGCGGGAAAGGGGUCAACAGCCGUUCAGUACCAAGUCUCAGGGGAAACUUUGAGAUGGCCUUGCAAAGGGUAUGGUAAUAAGCUGACGGACAUGGUCCUAACCACGCAGCCAAGUCCUAAGUCAACAGAUCUUCUGUUGAUAUGGAUGCAGUUCACAGACUAAAUGUCGGUCGGGGAAGAUGUAUUCUUCUCAUAAGAUAUAGUCGGACCUCUCCUUAAUGGGAGCUAGCGGAUGAAGUGAUGCAACACUGGAGCCGCUGGGAACUAAUUUGUAUGCGAAAGUAUAUUGAUUAGUUUUGGAGUACUCGUGGUCG
In short: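 The eight P1ex-region nucleotides of an intron in the knt kanamycin-resistance gene on pET-22b(+) were all randomised and the library put into E. coli BL21(DE3). Six replicate transformations were grown overnight at 37°C or 30°C on LB agar with or without 25 μg/mL kanamycin, together with 100 μg/mL carbenicillin, 50 μM IPTG and 0.2% rhamnose. Colonies were pooled and amplicon-sequenced on an Illumina HiSeq 2500. Fitness from DiMSum is the error-weighted combination of wild-type-normalised replicate fold changes, kanamycin over none.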

Sequence | self-splicing fitness (ln) (30 °C) | self-splicing fitness (ln) (37 °C)
UCAUAGCAAUAUUACGGUCU | -3.49 ± 0.16 | -2.31 ± 0.14
CCCCAGCAAUAUUACGCGCC | -3.19 ± 0.19 | -3.17 ± 0.47
UUUCAGCAAUAUUACGUACC | -3.51 ± 0.25 | -2.14 ± 0.17
UCUCAGCAAUAUUACGCUUA | -2.42 ± 0.31 | -2.93 ± 0.24
CACUAGCAAUAUUACGGAGU | -3.63 ± 0.18 | -2.14 ± 0.16
GUCCAGCAAUAUUACGAUUG | -3.41 ± 0.17 | -3.17 ± 0.24
GCGCAGCAAUAUUACGAACU | 0.116 ± 0.11 | 0.476 ± 0.13
GACCAGCAAUAUUACGCCAG | -3.98 ± 0.28 | -0.652 ± 0.19
UGGCAGCAAUAUUACGAUGG | -1.48 ± 0.17 | -1.67 ± 0.18
GAUCAGCAAUAUUACGUACC | -0.223 ± 0.073 | -0.245 ± 0.099
AGUGAGCAAUAUUACGACUC | -3.04 ± 0.37 | 
UUGUAGCAAUAUUACGUGCU | -3.17 ± 0.27 | -1.54 ± 0.21
CGUCAGCAAUAUUACGGACA | -0.0785 ± 0.094 | 0.394 ± 0.15
CGCUAGCAAUAUUACGGGGG | -2.53 ± 0.14 | -2.43 ± 0.16
GCCUAGCAAUAUUACGAUAC | -2.39 ± 0.11 | -0.543 ± 0.1
AAAUAGCAAUAUUACGUAAU | -3.04 ± 0.12 | -1.75 ± 0.12
AUGAAGCAAUAUUACGCAUU | -3.78 ± 0.43 | -2.52 ± 0.31
CAUUAGCAAUAUUACGUGCU | -4.27 ± 0.24 | -2.36 ± 0.27
GAUGAGCAAUAUUACGAUAA | -3.49 ± 0.43 | -1.6 ± 0.33
CCAUAGCAAUAUUACGCUUG | -2.3 ± 0.093 | -1.35 ± 0.091
GGGAAGCAAUAUUACGACGU | -0.169 ± 0.15 | 0.767 ± 0.17
UGCAAGCAAUAUUACGCAAA | -2.5 ± 0.17 | -2 ± 0.15
AGGAAGCAAUAUUACGCAAA | -1.79 ± 0.14 | -1.23 ± 0.14
CGGCAGCAAUAUUACGUUAG | -0.86 ± 0.057 | 0.0318 ± 0.078
UAGCAGCAAUAUUACGACCC |  | -0.938 ± 0.41

Sequence | self-splicing fitness (ln) (30 °C) | self-splicing fitness (ln) (37 °C)
GCCGAGCAAUAUUACGAAUA |  | -1.51 ± 0.47
AGUCAGCAAUAUUACGCAUU | -0.401 ± 0.069 | -0.421 ± 0.085
UGAUAGCAAUAUUACGGCAU | -2.68 ± 0.13 | -1.41 ± 0.13
AUGUAGCAAUAUUACGCUCU | -1.95 ± 0.13 | -0.655 ± 0.17
GCCAAGCAAUAUUACGUAUU | -3.29 ± 0.16 | -2.28 ± 0.14
AGUUAGCAAUAUUACGGGCU | -3.01 ± 0.28 | -1.79 ± 0.24
CCAUAGCAAUAUUACGAUUG | -1.17 ± 0.07 | -0.642 ± 0.083
GUCAAGCAAUAUUACGUAUC | -2.71 ± 0.2 | -0.284 ± 0.16
UUUCAGCAAUAUUACGCGGA | -2.2 ± 0.14 | -1.54 ± 0.15
CCGGAGCAAUAUUACGAAAC | -1.5 ± 0.23 | -0.933 ± 0.2
GUAGAGCAAUAUUACGGGCA | -1.69 ± 0.15 | -0.35 ± 0.21
ACCGAGCAAUAUUACGUACG | -3.75 ± 0.28 | -2.57 ± 0.22
GAGAAGCAAUAUUACGGUCA | -0.263 ± 0.1 | 0.383 ± 0.12
CCUAAGCAAUAUUACGCAAG | -4.71 ± 0.46 | 
ACGCAGCAAUAUUACGCUGA | -0.604 ± 0.095 | -0.835 ± 0.11
GGGUAGCAAUAUUACGCUUU | -0.389 ± 0.11 | -0.688 ± 0.12
CAUCAGCAAUAUUACGAAAC | -3.66 ± 0.47 | -3.45 ± 0.32
CGUAAGCAAUAUUACGGGUA | -2.63 ± 0.15 | -2.48 ± 0.21
GAAGAGCAAUAUUACGUAUU | -3.86 ± 0.28 | -1.04 ± 0.13
GAAAAGCAAUAUUACGAUGA | -0.7 ± 0.1 | -0.295 ± 0.11
AAUUAGCAAUAUUACGUGCA | -0.984 ± 0.096 | -0.374 ± 0.12
GUUUAGCAAUAUUACGGAAA | -2.38 ± 0.37 | -2.07 ± 0.28
GGCAAGCAAUAUUACGACCA | -1.23 ± 0.12 | -0.321 ± 0.13
AUGGAGCAAUAUUACGAGAU | -3.73 ± 0.28 | -1.96 ± 0.2
